Tested on: MS2 coat protein
Assay: apparent KD of MS2 coat protein; higher = weaker reporter binding
Conditions: Eterna round: R107
How it was run: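 Apparent KD stands for the median, per design, of fits to normalised cluster binding curves. The curves came from titrating on-chip-transcribed RNA switches on Illumina sequencing clusters with SNAP-549-labelled MS2 coat protein, twofold from 0.7 or 1.5 nM to 3 µM. Buffer was 100 mM Tris-HCl pH 7.5, 80 mM KCl, 4 mM MgCl2, without or with constant ligand.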

[1] = input ligand: theophylline 20 uM
[2] = input ligand: theophylline 2 mM
[3] = input ligand: tryptophan 2.4 mM

Sequence: GGAUAGGACACGGCCGCCACUAGCUAGGAUACUAGCAACAUUUCCUCAUCUGAGGAUCACCCAGGUAGGACCGGGUGUCCUAUCG
- apparent KD of MS2 coat protein (input ligand: arginine 13.2 mM): 172 nM
- apparent KD of MS2 coat protein [1]: 683 nM
- apparent KD of MS2 coat protein [2]: 1070 nM
- apparent KD of MS2 coat protein [3]: 565 nM

Sequence: GGACUAACCUGAAGGAGCGACGCGCAGAAACUGCAAAUUCCUCCACACGAGGAUCACCCGUGUCAGGUAGGUCGCAGGUUAGUCG [ArgBX 28]
- apparent KD of MS2 coat protein (input ligand: arginine 13.2 mM): 13.6 nM
- apparent KD of MS2 coat protein (input ligand: none): 14.6 nM
- apparent KD of MS2 coat protein [1]: 18.9 nM
- apparent KD of MS2 coat protein [2]: 18.2 nM
- apparent KD of MS2 coat protein [3]: 16.9 nM

Sequence: ACGUCCAGGUUAAUCGUGGGCAUGGUCGAUACCAGUAUUUUAAUCUACCCUUGGCAGCGACAUGAGGAUCACCCAUGUGCGAUGA [XTheo A #16]
- apparent KD of MS2 coat protein (input ligand: arginine 13.2 mM): 13.8 nM
- apparent KD of MS2 coat protein (input ligand: none): 16.4 nM
- apparent KD of MS2 coat protein [1]: 17.9 nM
- apparent KD of MS2 coat protein [2]: 40.1 nM
- apparent KD of MS2 coat protein [3]: 16.9 nM

Sequence: UGUACCAUGUCGGCCGCCACUCAUGAUAAGCAUGAGGAUCACCCAUGUAGCGUCAAAGACGCUAUGAGGACCGGGACAUGGUACU [TryBS Zipper 2]
- apparent KD of MS2 coat protein (input ligand: arginine 13.2 mM): 34.3 nM
- apparent KD of MS2 coat protein (input ligand: none): 34.7 nM
- apparent KD of MS2 coat protein [1]: 47.1 nM
- apparent KD of MS2 coat protein [2]: 41.2 nM
- apparent KD of MS2 coat protein [3]: 13.2 nM

Sequence: CCUAUCCAGUCGGCCGCCACUGAAAACAGUGGGUGAACAUGAGGAUCACCCAUGUCGGAAUACCGCAGGACCGGGACUGUAUAGG [Ex Tryptophan B 23]
- apparent KD of MS2 coat protein (input ligand: arginine 13.2 mM): 162 nM
- apparent KD of MS2 coat protein (input ligand: none): 143 nM
- apparent KD of MS2 coat protein [1]: 393 nM
- apparent KD of MS2 coat protein [2]: 1220 nM
- apparent KD of MS2 coat protein [3]: 574 nM

Sequence: ACAUGAGGAUCACCCAUGUACAUCACCCGACGAGGACCGGUACGGCCGCCACUCGGGUAUAUAUAUACAUCGGGUGAUUUUGCAU [#21 Tryptophan A Same State]
- apparent KD of MS2 coat protein (input ligand: arginine 13.2 mM): 27.4 nM
- apparent KD of MS2 coat protein (input ligand: none): 20.9 nM
- apparent KD of MS2 coat protein [1]: 108 nM
- apparent KD of MS2 coat protein [2]: 79.5 nM
- apparent KD of MS2 coat protein [3]: 26.5 nM

Sequence: GGGAAAUGAAUAGAAUGAGAUGACACAGAAGGAGCGCGGAUUAACGCAGGUAGGUCGCUGACAACAUGAGGAUCACCCAUGUUUC [#10 Same State - Arginine A]
- apparent KD of MS2 coat protein (input ligand: arginine 13.2 mM): 13.7 nM
- apparent KD of MS2 coat protein (input ligand: none): 14.2 nM
- apparent KD of MS2 coat protein [1]: 17.6 nM
- apparent KD of MS2 coat protein [2]: 18 nM
- apparent KD of MS2 coat protein [3]: 14.1 nM

Sequence: GGCUGACAUGAGGAUCACCCAUGUAGUGAUACCAGUAAGAGAAUAUACCCUUGGCAGCACAGGUAACAACUCGUCUCCAAAGUAA [theeternabot_sameState_MS2_Theo_A_49]
- apparent KD of MS2 coat protein (input ligand: arginine 13.2 mM): 53.7 nM
- apparent KD of MS2 coat protein [1]: 55.6 nM
- apparent KD of MS2 coat protein [3]: 38.2 nM

Sequence: GGAUAGGACACGGCCGCCACUAGCUAGGAUACUAGCAACAUUUCCUCACUUGAGGAACACCCAAGUAGGACCGGGUGUCCUAUCG
- apparent KD of MS2 coat protein (input ligand: arginine 13.2 mM): 122 nM
- apparent KD of MS2 coat protein (input ligand: none): 517 nM
- apparent KD of MS2 coat protein [1]: 724 nM
- apparent KD of MS2 coat protein [2]: 1360 nM
- apparent KD of MS2 coat protein [3]: 740 nM

Sequence: UGGUACUAGGCGGCCGCCACUGGGUGAUACAUGAGGAUCACCCAUGUUUAAUGCCGAGAGGCAACUAGGACCGGGCCUAGUACAU
- apparent KD of MS2 coat protein (input ligand: arginine 13.2 mM): 101 nM
- apparent KD of MS2 coat protein [1]: 339 nM
- apparent KD of MS2 coat protein [2]: 586 nM

Sequence: ACGAUACGACAUGAGGAUCACCCAUGUGAUACCAGCGUGGAAACACGCCCUUGGCAGCACAAAUACUCCAAUAACGUAUCGAAAA [MAT - Exclusion Theophlline A - Mod of Eli - D8]
- apparent KD of MS2 coat protein (input ligand: arginine 13.2 mM): 139 nM
- apparent KD of MS2 coat protein [1]: 211 nM
- apparent KD of MS2 coat protein [3]: 260 nM

Sequence: UGGAGUAGGACGGCCGCCACUAUACAAUGUGUAUACAUGAGGAUCACCCAUGUAAUCCUCGGAGAUAGGACCGGGUCAAGUUGUG [X-tryptB-ms2@35]
- apparent KD of MS2 coat protein (input ligand: arginine 13.2 mM): 39.4 nM
- apparent KD of MS2 coat protein [1]: 85.4 nM
- apparent KD of MS2 coat protein [2]: 59.8 nM

Sequence: GUUAUGGACCUGGAUACCAGCUGGUACAAGGGCGGUCUACAUGAGGAUCACCCAUGUGUCAGCCCUUGGCAGCCAGCAACCCACU [Cele]
- apparent KD of MS2 coat protein (input ligand: arginine 13.2 mM): 10.6 nM
- apparent KD of MS2 coat protein [1]: 16.7 nM
- apparent KD of MS2 coat protein [3]: 9.57 nM

Sequence: CCUCAGCAAUUGGAUACCAGUACAUCGUAAGACAUGAGGAUCACCCAUGUGGGCUUGACAUACCCUUGGCAGCCAUCCUUGAUCC [theeternabot_sameState_MS2_Theo_B_3]
- apparent KD of MS2 coat protein (input ligand: arginine 13.2 mM): 101 nM
- apparent KD of MS2 coat protein [3]: 250 nM

Sequence: GCGAUGGAGCGAAGGAGCGGCUGUGACUACAUGAGGAUCACCCAUGUACGAUUGUAAGGUAGCCAGGUAGGUCGCGCUCCAUCGC [SSAB NP+V+V2 #18]
- apparent KD of MS2 coat protein (input ligand: arginine 13.2 mM): 14 nM
- apparent KD of MS2 coat protein (input ligand: none): 16.3 nM
- apparent KD of MS2 coat protein [1]: 22.5 nM
- apparent KD of MS2 coat protein [2]: 24.6 nM
- apparent KD of MS2 coat protein [3]: 15.8 nM

Sequence: UAUCCACAUGAGGAUCACCCAUGUAAGGAAGGAGCGGUGAAUGCACCAGGUAGGUCGCCUUGCUGAGGACUGUCGGUGGAUUCGU [Exclusion - Arginine A (Freestyle 22)]
- apparent KD of MS2 coat protein (input ligand: arginine 13.2 mM): 26.8 nM
- apparent KD of MS2 coat protein (input ligand: none): 32.8 nM
- apparent KD of MS2 coat protein [1]: 43.2 nM
- apparent KD of MS2 coat protein [2]: 39.5 nM
- apparent KD of MS2 coat protein [3]: 32 nM

Sequence: CUAUGUAUAUAUGCGAAAGCUACGUGUUGACGAGGACCGGUACGGCCGCCACUCGACAUGAGGAUCACCCAUGUAAUAUAUAUAG [BMP_BFE]
- apparent KD of MS2 coat protein (input ligand: arginine 13.2 mM): 102 nM
- apparent KD of MS2 coat protein [1]: 173 nM
- apparent KD of MS2 coat protein [2]: 300 nM

Sequence: UUUUAAAGCAUGGCGUAUCGGAAAACCGAUACCAGUACAGAAAUGUACCCUUGGCAGCGGCAUUUUACAUGAGGAUCACCCAUGU [Ex Theophylline A 2]
- apparent KD of MS2 coat protein (input ligand: arginine 13.2 mM): 16 nM
- apparent KD of MS2 coat protein [1]: 18.4 nM
- apparent KD of MS2 coat protein [3]: 14.5 nM

Sequence: GAAGGAGUUAUGGGUACUCCUUCACUGGAAGGAGCGAGCGAAAGCUCAGGUAGGUCGCCAGAAACAUGAGGAUCACCCAUGUAAU [(A)''-(M)'-(A)'-(Arg1)-(Arg2)-(M1)-(M2)_Design6]
- apparent KD of MS2 coat protein (input ligand: arginine 13.2 mM): 30.3 nM
- apparent KD of MS2 coat protein (input ligand: none): 45.7 nM
- apparent KD of MS2 coat protein [1]: 59.5 nM
- apparent KD of MS2 coat protein [2]: 65.3 nM
- apparent KD of MS2 coat protein [3]: 41.3 nM

Sequence: AGCCCUGUACUAGAUACCAGCUACAUGAGGAUCACCCAUGUACGAUAAGACUGUCCAUGUAGCCCUUGGCAGCUGCUCGCAUGUA [#13 Exclusion-TheophyllineB]
- apparent KD of MS2 coat protein (input ligand: arginine 13.2 mM): 24.1 nM
- apparent KD of MS2 coat protein [1]: 41.3 nM
- apparent KD of MS2 coat protein [3]: 29.2 nM

Sequence: CUAGGAAACUAGUAAGGGUGGUAUAGAGAUACCAGUACAGAAAUGUACCCUUGGCAGCUCACUGCAACAUGAGGAUCACCCAUGU [Ex Theophylline A 11]
- apparent KD of MS2 coat protein (input ligand: arginine 13.2 mM): 29.9 nM
- apparent KD of MS2 coat protein [1]: 41.6 nM
- apparent KD of MS2 coat protein [3]: 26.1 nM

Sequence: ACGACAUGAGGAUCACCCAUGUAAGGUGAUACCAGACGAAGUAAUGUCCCUUGGCAGCACAAGCAUAGUUGCGAUUAUUGUACGA [JR_SSTheophyA_Sub006]
- apparent KD of MS2 coat protein (input ligand: arginine 13.2 mM): 124 nM
- apparent KD of MS2 coat protein [1]: 574 nM
- apparent KD of MS2 coat protein [3]: 442 nM

Sequence: AUUAACAUGAGGAUCACCCAUGUUCUCACACGAGGACCGGUACGGCCGCCACUCGGUUUGGUAUUGGUCACUAGGCAGUUAGGAG [theeternabot_sameState_MS2_Trp_A_12]
- apparent KD of MS2 coat protein (input ligand: arginine 13.2 mM): 15.2 nM
- apparent KD of MS2 coat protein [1]: 26.7 nM
- apparent KD of MS2 coat protein [2]: 17 nM

Sequence: AUGUCGUUGAAUAUAGCGGCUUGGAGUGAUACCAGUAUGAUCCAAUACCCUUGGCAGCAUUACAUGAGGAUCACCCAUGUUCCAG [SSTheo A #24]
- apparent KD of MS2 coat protein (input ligand: arginine 13.2 mM): 17.2 nM
- apparent KD of MS2 coat protein (input ligand: none): 22.6 nM
- apparent KD of MS2 coat protein [1]: 37.2 nM
- apparent KD of MS2 coat protein [2]: 53.4 nM
- apparent KD of MS2 coat protein [3]: 34 nM

Sequence: AAAACACAUGAGGAUCACCCAUGUCAUGAUACCAGUCCACAUGAGGACCCUUGGCAGCAUAAAAUGGGUAACAUGAGGAUAACCC [AstrosEXyTheA#4]
- apparent KD of MS2 coat protein (input ligand: arginine 13.2 mM): 26.5 nM
- apparent KD of MS2 coat protein [1]: 48.1 nM
- apparent KD of MS2 coat protein [3]: 23.4 nM

Sequence: CUGUUUACAUGAGCCCGUCAUAUAUACGAUACCAGUUAAAGAUGAAACCCUUGGCAGCGUAGGACAUGAGGAUCACCCAUGUGCC [theeternabot_exclusion_MS2_Theo_A_17]
- apparent KD of MS2 coat protein (input ligand: arginine 13.2 mM): 15.6 nM
- apparent KD of MS2 coat protein [1]: 21.1 nM
- apparent KD of MS2 coat protein [3]: 18.6 nM

Sequence: ACGUCCGGAUUACUCGUGGGCAUGGUCGAUACCAGUAUUUUAAUCUACCCUUGGCAGCGACAUGAGGAUCACCCAUGUGCGAUGA [XTheo A #20]
- apparent KD of MS2 coat protein (input ligand: arginine 13.2 mM): 21.5 nM
- apparent KD of MS2 coat protein (input ligand: none): 20.5 nM
- apparent KD of MS2 coat protein [1]: 41.6 nM
- apparent KD of MS2 coat protein [2]: 41.3 nM
- apparent KD of MS2 coat protein [3]: 21.8 nM

Sequence: CUCGGGUUAUCAGAUACCAGACUAAAAUUUACAUGAGGAUCACCCAUGUAAUGGGUGAUAGUCCCUUGGCAGCUGUUAUGUUUAA [JR_ExcTheophyB_Sub001]
- apparent KD of MS2 coat protein (input ligand: arginine 13.2 mM): 65 nM
- apparent KD of MS2 coat protein [1]: 85.4 nM
- apparent KD of MS2 coat protein [3]: 70.8 nM

Sequence: AUGUAGAACCGAAGGAGCGCGAUGACAUGAGGAUCACCCAUGUAUUUGUGGUGGCUUCGAUCGCAGGUAGGUCGCGGAAGUAGUA [#04 Exclusion - Arginine B]
- apparent KD of MS2 coat protein (input ligand: arginine 13.2 mM): 96.6 nM
- apparent KD of MS2 coat protein (input ligand: none): 128 nM
- apparent KD of MS2 coat protein [1]: 162 nM
- apparent KD of MS2 coat protein [2]: 346 nM
- apparent KD of MS2 coat protein [3]: 211 nM
